{
  "source": "paper PMC11266248",
  "key": {"[1]": {"biological_target": "recombinant factor H-like protein 1 (human) (UniProt P08603)", "sequence (P08603 other isoform, or with tags, fused parts or gaps)": "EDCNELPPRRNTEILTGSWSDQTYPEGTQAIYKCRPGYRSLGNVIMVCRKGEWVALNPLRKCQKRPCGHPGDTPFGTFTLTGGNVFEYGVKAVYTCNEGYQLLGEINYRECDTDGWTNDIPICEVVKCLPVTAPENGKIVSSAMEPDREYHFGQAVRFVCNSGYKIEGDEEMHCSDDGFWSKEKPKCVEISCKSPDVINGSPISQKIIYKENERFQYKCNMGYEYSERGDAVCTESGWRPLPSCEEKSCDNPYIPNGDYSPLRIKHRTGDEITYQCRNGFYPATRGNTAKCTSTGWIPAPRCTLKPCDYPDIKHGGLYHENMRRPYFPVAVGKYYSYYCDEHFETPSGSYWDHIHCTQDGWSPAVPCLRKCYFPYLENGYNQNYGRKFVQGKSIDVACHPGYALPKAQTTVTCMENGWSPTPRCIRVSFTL", "experiment": "SPR; Biacore T100, CM5 chip; FH (750 RU), rFHL-1 or rFH15-20 (200 RU) amine-coupled as ligands; CspZ or FhbA as analytes; PBS with 0.05% Tween20, 25 °C, 30 µl/min; single-cycle and multiple-cycle kinetics, Langmuir 1:1 model; in duplicate"}, "[2]": {"biological_target": "purified human complement factor H from human plasma/serum (human) (UniProt P08603)", "sequence (P08603 19-1231)": "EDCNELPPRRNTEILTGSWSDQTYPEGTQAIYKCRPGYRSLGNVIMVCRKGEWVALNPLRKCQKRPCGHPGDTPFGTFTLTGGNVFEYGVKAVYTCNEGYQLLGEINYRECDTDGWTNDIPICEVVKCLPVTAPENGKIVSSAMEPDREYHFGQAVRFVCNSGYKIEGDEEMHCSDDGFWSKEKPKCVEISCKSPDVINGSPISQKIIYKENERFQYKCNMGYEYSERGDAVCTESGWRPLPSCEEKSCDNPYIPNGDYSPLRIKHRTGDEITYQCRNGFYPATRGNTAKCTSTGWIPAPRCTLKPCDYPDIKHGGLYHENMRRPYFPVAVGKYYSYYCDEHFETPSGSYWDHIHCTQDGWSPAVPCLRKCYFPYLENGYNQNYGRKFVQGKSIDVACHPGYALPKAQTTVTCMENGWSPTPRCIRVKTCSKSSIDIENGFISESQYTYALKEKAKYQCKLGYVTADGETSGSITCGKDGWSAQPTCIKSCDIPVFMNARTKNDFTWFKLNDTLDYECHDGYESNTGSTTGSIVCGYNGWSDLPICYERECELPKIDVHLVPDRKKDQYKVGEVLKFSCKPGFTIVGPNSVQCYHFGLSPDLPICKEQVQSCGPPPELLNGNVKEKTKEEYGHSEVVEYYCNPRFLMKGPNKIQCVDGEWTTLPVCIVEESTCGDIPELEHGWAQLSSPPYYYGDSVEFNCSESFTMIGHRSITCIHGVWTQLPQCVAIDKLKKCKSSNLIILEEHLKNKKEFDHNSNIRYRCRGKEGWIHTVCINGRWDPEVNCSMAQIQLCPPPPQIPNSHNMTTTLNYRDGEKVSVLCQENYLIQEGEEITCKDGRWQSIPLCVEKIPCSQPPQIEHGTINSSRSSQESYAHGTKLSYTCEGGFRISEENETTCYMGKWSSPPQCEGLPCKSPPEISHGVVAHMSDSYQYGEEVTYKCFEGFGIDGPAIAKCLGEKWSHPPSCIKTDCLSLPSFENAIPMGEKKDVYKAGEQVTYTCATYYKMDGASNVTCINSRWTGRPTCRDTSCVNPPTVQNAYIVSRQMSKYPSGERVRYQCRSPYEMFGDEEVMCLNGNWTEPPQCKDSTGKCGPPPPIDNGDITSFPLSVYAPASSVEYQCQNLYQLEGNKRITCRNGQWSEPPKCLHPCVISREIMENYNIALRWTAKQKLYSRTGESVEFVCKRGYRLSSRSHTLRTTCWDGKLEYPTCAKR", "experiment": "SPR; Biacore T100, CM5 chip; FH (750 RU), rFHL-1 or rFH15-20 (200 RU) amine-coupled as ligands; CspZ or FhbA as analytes; PBS with 0.05% Tween20, 25 °C, 30 µl/min; single-cycle and multiple-cycle kinetics, Langmuir 1:1 model; in duplicate"}, "[3]": {"biological_target": "recombinant factor H SCR15-20 (human) (UniProt P08603)", "sequence (P08603 860-1231)": "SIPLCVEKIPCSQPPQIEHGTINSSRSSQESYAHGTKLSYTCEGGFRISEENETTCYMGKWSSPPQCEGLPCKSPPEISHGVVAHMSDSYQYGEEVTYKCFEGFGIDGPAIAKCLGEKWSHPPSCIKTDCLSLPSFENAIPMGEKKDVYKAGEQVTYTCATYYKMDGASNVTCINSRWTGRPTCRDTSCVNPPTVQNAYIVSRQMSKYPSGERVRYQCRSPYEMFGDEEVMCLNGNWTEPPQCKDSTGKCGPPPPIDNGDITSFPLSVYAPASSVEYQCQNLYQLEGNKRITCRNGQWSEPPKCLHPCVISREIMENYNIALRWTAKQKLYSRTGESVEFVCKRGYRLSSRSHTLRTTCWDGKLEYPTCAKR", "experiment": "SPR; Biacore T100, CM5 chip; FH (750 RU), rFHL-1 or rFH15-20 (200 RU) amine-coupled as ligands; CspZ or FhbA as analytes; PBS with 0.05% Tween20, 25 °C, 30 µl/min; single-cycle and multiple-cycle kinetics, Langmuir 1:1 model; in duplicate"}, "[4]": {"biological_target": "factor H binding A (FhbA) from Borrelia hermsii (Borrelia hermsii)", "experiment": "LC-HRMS (ESI-Q-TOF); ACE C4 column, 0.1% formic acid/acetonitrile gradient, ESI+, deconvolution with UniDec"}, "[5]": {"biological_target": "factor H binding A (FhbA) from Borrelia hermsii (Borrelia hermsii)", "experiment": "SEC-MALS; Superdex 200 increase 10/300 GL in PBS, 0.7 mL/min; 100 µL injected at about 3.75 mg/mL (CspZ) or 2.50 mg/mL (FhbA)"}},
  "note": "Where “and” joins values, the source holds several entries; their conditions need not be identical. Equal values may be shown once.",
  "data": [
    {"substance": "CspZ from Borrelia burgdorferi sensu stricto (complement regulator-acquiring surface protein 2) (from UniProt O50665 1-236) (natural protein)", "values": [
      {"measurement": "Kd", "setting": "[1]", "value": 0.044, "unit": "nM"},
      {"measurement": "koff", "setting": "[1]", "value": "3.1e-05", "unit": "s⁻¹"},
      {"measurement": "kon", "setting": "[1]", "value": 720000, "unit": "M⁻¹ s⁻¹"}
    ]},
    {"substance": "factor H binding A (FhbA) from Borrelia hermsii (natural protein)", "values": [
      {"measurement": "Kd", "setting": "[1]", "value": 42.9, "unit": "nM"},
      {"measurement": "koff", "setting": "[1]", "value": "6.74e-05", "unit": "s⁻¹"},
      {"measurement": "kon", "setting": "[1]", "value": 1570, "unit": "M⁻¹ s⁻¹"},
      {"measurement": "Kd", "setting": "[2]", "value": 1.09, "unit": "nM"},
      {"measurement": "koff", "setting": "[2]", "value": 0.000268, "unit": "s⁻¹"},
      {"measurement": "kon", "setting": "[2]", "value": 246000, "unit": "M⁻¹ s⁻¹"},
      {"measurement": "Kd", "setting": "[3]", "value": 3.37, "unit": "nM"},
      {"measurement": "koff", "setting": "[3]", "value": 0.000266, "unit": "s⁻¹"},
      {"measurement": "kon", "setting": "[3]", "value": 85400, "unit": "M⁻¹ s⁻¹"},
      {"measurement": "stoichiometry N", "setting": "[4]", "value": 2},
      {"measurement": "representation of the dimer peak (46.2 kDa) in the sample (%)", "setting": "[5]", "value": 27, "unit": "%"},
      {"measurement": "representation of the pentamer peak (119.0 kDa) in the sample (%)", "setting": "[5]", "value": 1, "unit": "%"},
      {"measurement": "representation of the trimer peak (71.7 kDa) in the sample (%)", "setting": "[5]", "value": 6, "unit": "%"},
      {"measurement": "stoichiometry N", "setting": "[5]", "value": "2 and 3 and 5"}
    ]}
  ]
}
